This is an account of results in article PMC12828769.

The experiment has as its target Human Angiotensin-converting enzyme 2 (ACE2) (human). Description: MST; Monolith NT.115, standard glass capillaries; ACE2 labelled with NT-647 (NHS ester); ACE2 serially diluted across 16 tubes in 10 mM phosphate buffer pH 7.4, mixed 1:1 with RBDs or RBDdopa's, 15 min at RT; 40-60% MST power; apparent KD.

Take “Native SARS-CoV-2 RBD (Arg319-Phe541) without any mutation (domain or fragment; other documents disagree on this pair)”: the Kd is 5.4 µM.
